Literature values in PMC5323041.
Where two headings read alike, the source gives them in different places.

Columns and labels:
oxytocin (Mus musculus) [1] = molecular target: oxytocin (Mus musculus) (UniProt P35454)
oxytocin (Mus musculus) [2] = molecular target: oxytocin (Mus musculus) (UniProt P35454); remark: listed apart in the source

Chain of UniProt P35454 (P35454 whole entry, looked up): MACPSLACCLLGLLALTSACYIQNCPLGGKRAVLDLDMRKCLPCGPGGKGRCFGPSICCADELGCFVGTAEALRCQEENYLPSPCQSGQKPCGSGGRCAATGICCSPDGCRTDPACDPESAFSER

Kd (oxytocin (Mus musculus) [1])	Kd (oxytocin (Mus musculus) [2])	Substance
25 nM	–	vasopressin V1a receptor (from UniProt Q62463)
–	1 nM	oxytocin receptor (from UniProt P97926)
